The record followed here is article PMC2939893, “Mammalian Otolin: A Multimeric Glycoprotein Specific to the Inner Ear that Interacts with Otoconial Matrix Protein Otoconin-90 and Cerebellin-1” (PLoS ONE, 2010).

This data set concerns the molecule itself. Put plainly: SEC; supernatant (500 µl) of transfected HEK293T cells with FLAG-tagged Otolin on Superdex 200 HR 10/30 in PBS; fractions immunoblotted with anti-FLAG M2. For orientation: SEC sorts molecules by how far they enter the pores of the column.

B1: C-terminal FLAG-tagged Otolin (natural protein, mouse, UniProt Q4ZJM7 24-482, looked up)
chain: KTTPYTKFTKKSEGKEMLKGLKPSSGFFLDGEETVHTETAAMAEPTTGSPALAMAESTAGPSASATTRLLPFESFSLDTTGFVLNCCHCCSFVTGQKGEPGKMGKQGPKGETGDTGSPGHPGTTGPQGPKGQKGEKGLKGDRGDQGAGGIPGYPGKPGEQGALGPKGDKGTIGPAGTKGQKGSKGELCGNGTKGEKGDPGASGAHGFIGEPGAKGEKGGVGEKGYRGDLGERGEKGQKGEKGMEGEKGSRGDVGSEGKRGSDGLPGLRGDSGPKGEKGEIGSPGFTGPAGPKGELGSKGVRGPTGKKGSRGVKGSKGEATQVPQSAFSALLSKPFPPPNVPIKFDKILSNDQGDYSPVTGKFNCSVPGTYIFSYHVTVRGRPARISLVARNRKQFKSRETLYGQQVDQASLLLILKLSAGDQVWLEVSKDWNGLYVGPEDDSIFSGFLLYPEETFSKSP
modifications: hydroxyproline at Pro-141, 144, 174, 177, 180, 222, 234, 288 and 306; Lys-189 and Lys-315 hydroxylated and glycosylated with a glucosyl-galactosyl group (mass spectrometry of purified recombinant Otolin)
notes: Otolin, mouse, GenBank DQ002405; entire coding region (482 amino acids, own signal peptide) cloned and expressed; the secreted protein was collected from the medium; also called otolin-FLAG; recombinant Otolin; source: HEK293T, transiently transfected; not shown: FLAG, C-terminal, kept
Consider B1, for which the binding result is on record as “binds”.
